B1: humanized XT-M4 hVH-V2.0 / hVL-V2.7 (antibody, human IgG1, V domains shown)
VH: EVQLVESGGGLVQPGGSLRLSCAASGFTFNNYWMTWVRQAPGKGLEWVASIDNSGDNTYYPDSVKDRFTISRDNAKNSLYLQMNSLRAEDTAVYYCARGGDITTGFDYWGQGTLVTVSS
VL: DIQMTQSPSSLSASVGDRVTITCRASQDVGIYVNWYQQKPGKAPKRLIYRATNLADGVPSRFSGSGSGTDFTLTISSLQPEDFATYYCLEFDEHPLTFGGGTKVEIK
B2: humanized XT-M4 hVH-V1.0 / hVL-V2.4 (antibody, human IgG1, V domains shown)
VH: EVQLVESGGGLVQPGGSLRLSCAASGFTFNNYWMTWVRQAPGKGLEWVASINNSGDNTYYPDSVKDRFTISRDNAKNSLYLQMNSLRSEDTAVYYCARGGDITTGFDYWGQGTLVTVSS
VL: DIQMTQSPSSLSASVGDRVTITCRASQDVGIYVNWYQQKPGKAPKLLIYRATNLADGVPSRFSGSRSGTDFTLTISSLQPEDFATYYCLEFDEHPLTFGGGTKVEIK
B3: humanized XT-M4 hVH-V2.0 / hVL-V2.4 (antibody, human IgG1, V domains shown)
VH: EVQLVESGGGLVQPGGSLRLSCAASGFTFNNYWMTWVRQAPGKGLEWVASIDNSGDNTYYPDSVKDRFTISRDNAKNSLYLQMNSLRAEDTAVYYCARGGDITTGFDYWGQGTLVTVSS
VL: DIQMTQSPSSLSASVGDRVTITCRASQDVGIYVNWYQQKPGKAPKLLIYRATNLADGVPSRFSGSRSGTDFTLTISSLQPEDFATYYCLEFDEHPLTFGGGTKVEIK
B4: humanized XT-M4 hVH-V1.0 / hVL-V2.7 (antibody, human IgG1, V domains shown)
VH: EVQLVESGGGLVQPGGSLRLSCAASGFTFNNYWMTWVRQAPGKGLEWVASINNSGDNTYYPDSVKDRFTISRDNAKNSLYLQMNSLRSEDTAVYYCARGGDITTGFDYWGQGTLVTVSS
VL: DIQMTQSPSSLSASVGDRVTITCRASQDVGIYVNWYQQKPGKAPKRLIYRATNLADGVPSRFSGSGSGTDFTLTISSLQPEDFATYYCLEFDEHPLTFGGGTKVEIK
B5: mVH / v2.0 (V2, L4, S48) (antibody, V domains shown)
VH: QVQLQQSGAELAKPGASVKMSCKASGYTFTTYWMHWVKQRPGQGLYWIGYINPSTGYTEYNQKFKDKATLTADKSSSTAYMQLSSLTSEDSAVYYCARWAGYTIDYWGQGTSVTVSS
VL: DVVLTQTPLSLSVTPGQPASISCKSTKSLLNSDGFTYLDWYLQKPGQSPQLLIYLVSDRFSGVPDRFSGSGSGTDFTLKISRVEAEDVGVYYCFQSNSLPLTFGGGTKVEIK
notes: XT-H2 construct expressed in COS cells; also called XT-H2 mVH + hVL V2.0
B6: V2.0 (R40, Y46, I48, A71, K73) / v2.0 (V2, L4, S48) (antibody, V domains shown)
VH: QVQLVQSGAEVKKPGASVKVSCKASGYTFTTYWMHWVRQRPGQGLYWIGYINPSTGYTEYNQKFKDRVTMTADTSISTAYMELSRLRSDDTAVYYCARWAGYTIDYWGQGTLVTVSS
VL: DVVLTQTPLSLSVTPGQPASISCKSTKSLLNSDGFTYLDWYLQKPGQSPQLLIYLVSDRFSGVPDRFSGSGSGTDFTLKISRVEAEDVGVYYCFQSNSLPLTFGGGTKVEIK
notes: XT-H2 construct expressed in COS cells; also called XT-H2 hVH V2.0 + hVL V2.0
B7: V2.1 (R40A) / v2.1 (antibody, V domains shown)
VH: QVQLVQSGAEVKKPGASVKVSCKASGYTFTTYWMHWVRQAPGQGLYWIGYINPSTGYTEYNQKFKDRVTMTADTSISTAYMELSRLRSDDTAVYYCARWAGYTIDYWGQGTLVTVSS
VL: DIVMTQTPLSLSVTPGQPASISCKSTKSLLNSDGFTYLDWYLQKPGQSPQLLIYLVSDRFSGVPDRFSGSGSGTDFTLKISRVEAEDVGVYYCFQSNSLPLTFGGGTKVEIK
notes: XT-H2 construct expressed in COS cells; also called XT-H2 hVH V2.1 + hVL V2.1
B8: V2.0 (R40, Y46, I48, A71, K73) / v2.1 (V2I, L4M) (antibody, V domains shown)
VH: QVQLVQSGAEVKKPGASVKVSCKASGYTFTTYWMHWVRQRPGQGLYWIGYINPSTGYTEYNQKFKDRVTMTADTSISTAYMELSRLRSDDTAVYYCARWAGYTIDYWGQGTLVTVSS
VL: DIVMTQTPLSLSVTPGQPASISCKSTKSLLNSDGFTYLDWYLQKPGQSPQLLIYLVSDRFSGVPDRFSGSGSGTDFTLKISRVEAEDVGVYYCFQSNSLPLTFGGGTKVEIK
notes: XT-H2 construct expressed in COS cells; also called XT-H2 hVH V2.0 + hVL V2.1
B9: V2.2 (Y46E) / v2.0 (antibody, V domains shown)
VH: QVQLVQSGAEVKKPGASVKVSCKASGYTFTTYWMHWVRQRPGQGLEWIGYINPSTGYTEYNQKFKDRVTMTADTSISTAYMELSRLRSDDTAVYYCARWAGYTIDYWGQGTLVTVSS
VL: DVVLTQTPLSLSVTPGQPASISCKSTKSLLNSDGFTYLDWYLQKPGQSPQLLIYLVSDRFSGVPDRFSGSGSGTDFTLKISRVEAEDVGVYYCFQSNSLPLTFGGGTKVEIK
notes: XT-H2 construct expressed in COS cells; also called XT-H2 hVH V2.2 + hVL V2.0
B10: V2.3 (I48M) / v2.1 (antibody, V domains shown)
VH: QVQLVQSGAEVKKPGASVKVSCKASGYTFTTYWMHWVRQRPGQGLYWMGYINPSTGYTEYNQKFKDRVTMTADTSISTAYMELSRLRSDDTAVYYCARWAGYTIDYWGQGTLVTVSS
VL: DIVMTQTPLSLSVTPGQPASISCKSTKSLLNSDGFTYLDWYLQKPGQSPQLLIYLVSDRFSGVPDRFSGSGSGTDFTLKISRVEAEDVGVYYCFQSNSLPLTFGGGTKVEIK
notes: XT-H2 construct expressed in COS cells; also called XT-H2 hVH V2.3 + hVL V2.1
B11: V2.2 (Y46E) / v2.1 (antibody, V domains shown)
VH: QVQLVQSGAEVKKPGASVKVSCKASGYTFTTYWMHWVRQRPGQGLEWIGYINPSTGYTEYNQKFKDRVTMTADTSISTAYMELSRLRSDDTAVYYCARWAGYTIDYWGQGTLVTVSS
VL: DIVMTQTPLSLSVTPGQPASISCKSTKSLLNSDGFTYLDWYLQKPGQSPQLLIYLVSDRFSGVPDRFSGSGSGTDFTLKISRVEAEDVGVYYCFQSNSLPLTFGGGTKVEIK
notes: XT-H2 construct expressed in COS cells; also called XT-H2 hVH V2.2 + hVL V2.1
B12: V2.2 (Y46E) / mVL (antibody, V domains shown)
VH: QVQLVQSGAEVKKPGASVKVSCKASGYTFTTYWMHWVRQRPGQGLEWIGYINPSTGYTEYNQKFKDRVTMTADTSISTAYMELSRLRSDDTAVYYCARWAGYTIDYWGQGTLVTVSS
VL: DVVLTQTPLSLPVNIGDQASISCKSTKSLLNSDGFTYLDWYLQKPGQSPQLLIYLVSDRFSGVPDRFSGSGSGTDFTLTISRVEAEDLGVYYCFQSNSLPLTFGSGTKLEIK
notes: XT-H2 construct expressed in COS cells; also called XT-H2 hVH V2.2 + mVL
B13: V2.1 (R40A) / mVL (antibody, V domains shown)
VH: QVQLVQSGAEVKKPGASVKVSCKASGYTFTTYWMHWVRQAPGQGLYWIGYINPSTGYTEYNQKFKDRVTMTADTSISTAYMELSRLRSDDTAVYYCARWAGYTIDYWGQGTLVTVSS
VL: DVVLTQTPLSLPVNIGDQASISCKSTKSLLNSDGFTYLDWYLQKPGQSPQLLIYLVSDRFSGVPDRFSGSGSGTDFTLTISRVEAEDLGVYYCFQSNSLPLTFGSGTKLEIK
notes: XT-H2 construct expressed in COS cells; also called XT-H2 hVH V2.1 + mVL
B14: V2.3 (I48M) / v2.0 (antibody, V domains shown)
VH: QVQLVQSGAEVKKPGASVKVSCKASGYTFTTYWMHWVRQRPGQGLYWMGYINPSTGYTEYNQKFKDRVTMTADTSISTAYMELSRLRSDDTAVYYCARWAGYTIDYWGQGTLVTVSS
VL: DVVLTQTPLSLSVTPGQPASISCKSTKSLLNSDGFTYLDWYLQKPGQSPQLLIYLVSDRFSGVPDRFSGSGSGTDFTLKISRVEAEDVGVYYCFQSNSLPLTFGGGTKVEIK
notes: XT-H2 construct expressed in COS cells; also called XT-H2 hVH V2.3 + hVL V2.0
B15: V2.3 (I48M) / mVL (antibody, V domains shown)
VH: QVQLVQSGAEVKKPGASVKVSCKASGYTFTTYWMHWVRQRPGQGLYWMGYINPSTGYTEYNQKFKDRVTMTADTSISTAYMELSRLRSDDTAVYYCARWAGYTIDYWGQGTLVTVSS
VL: DVVLTQTPLSLPVNIGDQASISCKSTKSLLNSDGFTYLDWYLQKPGQSPQLLIYLVSDRFSGVPDRFSGSGSGTDFTLTISRVEAEDLGVYYCFQSNSLPLTFGSGTKLEIK
notes: XT-H2 construct expressed in COS cells; also called XT-H2 hVH V2.3 + mVL
B16: V2.1 (R40A) / v2.0 (antibody, V domains shown)
VH: QVQLVQSGAEVKKPGASVKVSCKASGYTFTTYWMHWVRQAPGQGLYWIGYINPSTGYTEYNQKFKDRVTMTADTSISTAYMELSRLRSDDTAVYYCARWAGYTIDYWGQGTLVTVSS
VL: DVVLTQTPLSLSVTPGQPASISCKSTKSLLNSDGFTYLDWYLQKPGQSPQLLIYLVSDRFSGVPDRFSGSGSGTDFTLKISRVEAEDVGVYYCFQSNSLPLTFGGGTKVEIK
notes: XT-H2 construct expressed in COS cells; also called XT-H2 hVH V2.1 + hVL V2.0
B17: V2.0 (R40, Y46, I48, A71, K73) / mVL (antibody, V domains shown)
VH: QVQLVQSGAEVKKPGASVKVSCKASGYTFTTYWMHWVRQRPGQGLYWIGYINPSTGYTEYNQKFKDRVTMTADTSISTAYMELSRLRSDDTAVYYCARWAGYTIDYWGQGTLVTVSS
VL: DVVLTQTPLSLPVNIGDQASISCKSTKSLLNSDGFTYLDWYLQKPGQSPQLLIYLVSDRFSGVPDRFSGSGSGTDFTLTISRVEAEDLGVYYCFQSNSLPLTFGSGTKLEIK
notes: XT-H2 construct expressed in COS cells; also called XT-H2 hVH V2.0 + mVL
B18: V2.0 (R40, Y46, I48, A71, K73) / v3.0 DPK24 grafted (antibody, V domains shown)
VH: QVQLVQSGAEVKKPGASVKVSCKASGYTFTTYWMHWVRQRPGQGLYWIGYINPSTGYTEYNQKFKDRVTMTADTSISTAYMELSRLRSDDTAVYYCARWAGYTIDYWGQGTLVTVSS
VL: DIVMTQSPDSLAVSLGERATINCKSTKSLLNSDGFTYLDWYQQKPGQPPKLLIYLVSDRFSGVPDRFSGSGSGTDFTLTISSLQAEDVAVYYCFQSNSLPLTFGGGTKVEIK
notes: XT-H2 construct expressed in COS cells; also called XT-H2 hVH V2.0 + hVL V3.0
B19: V2.2 (Y46E) / v3.0 (antibody, V domains shown)
VH: QVQLVQSGAEVKKPGASVKVSCKASGYTFTTYWMHWVRQRPGQGLEWIGYINPSTGYTEYNQKFKDRVTMTADTSISTAYMELSRLRSDDTAVYYCARWAGYTIDYWGQGTLVTVSS
VL: DIVMTQSPDSLAVSLGERATINCKSTKSLLNSDGFTYLDWYQQKPGQPPKLLIYLVSDRFSGVPDRFSGSGSGTDFTLTISSLQAEDVAVYYCFQSNSLPLTFGGGTKVEIK
notes: XT-H2 construct expressed in COS cells; also called XT-H2 hVH V2.2 + hVL V3.0
B20: V2.3 (I48M) / v3.0 (antibody, V domains shown)
VH: QVQLVQSGAEVKKPGASVKVSCKASGYTFTTYWMHWVRQRPGQGLYWMGYINPSTGYTEYNQKFKDRVTMTADTSISTAYMELSRLRSDDTAVYYCARWAGYTIDYWGQGTLVTVSS
VL: DIVMTQSPDSLAVSLGERATINCKSTKSLLNSDGFTYLDWYQQKPGQPPKLLIYLVSDRFSGVPDRFSGSGSGTDFTLTISSLQAEDVAVYYCFQSNSLPLTFGGGTKVEIK
notes: XT-H2 construct expressed in COS cells; also called XT-H2 hVH V2.3 + hVL V3.0
B21: V2.1 (R40A) / v3.0 (antibody, V domains shown)
VH: QVQLVQSGAEVKKPGASVKVSCKASGYTFTTYWMHWVRQAPGQGLYWIGYINPSTGYTEYNQKFKDRVTMTADTSISTAYMELSRLRSDDTAVYYCARWAGYTIDYWGQGTLVTVSS
VL: DIVMTQSPDSLAVSLGERATINCKSTKSLLNSDGFTYLDWYQQKPGQPPKLLIYLVSDRFSGVPDRFSGSGSGTDFTLTISSLQAEDVAVYYCFQSNSLPLTFGGGTKVEIK
notes: XT-H2 construct expressed in COS cells; also called XT-H2 hVH V2.1 + hVL V3.0

Target: T1, human RAGE-Fc fusion protein (human, UniProt Q15109 23-344)
T1 construct: also called hRAGE-Fc; huRAGE-Fc; not shown: Fc domain of human IgG
Experiment: competition ELISA on coated hRAGE-Fc; competitor 12.5 ng/ml biotinylated rat XT-M4
Experimental: ELISA plates were coated overnight with 1 ug/ml human RAGE-Fc. […] Briefly, plates were coated overnight with 1 ug/ml human RAGE-Fc.

IC50 [µg/mL]	Binder
8.5	B1
4.5 to 8.5	B2
2.9	B3
4 to 9.5	B4

Target: T1, human RAGE-Fc fusion protein
Experiment: competition ELISA on human RAGE-Fc; labelled competitor not named

ED50 [nM]	Binder
7	B5
5	B6
7.5	B7
5	B8
4	B9
5	B10
5	B11
6	B12
8	B13
4.5	B14
10	B15
4	B16
8	B17
8	B18
5	B19
5	B20
5	B21
